The results in this text go back to patent US20240368280A1 (DEUTSCHES KREBSFORSCHUNGSZENTRUM STIFTUNG DES FFENTLICHEN …, published 2024).

Test [1] addresses T1, Human Fcγ receptor I (human, UniProt P12314 16-288).
T1 construct: Bought protein; also called Fcγ RI
Put plainly: SPR (Biacore T200), His-tagged FcγR captured via anti-His IgG, antibody as analyte 0.04-25 µM, steady-state affinity. On the procedure: (§1) Binding assays were performed on a Biacore T200 instrument (Cytiva) at 25° C. using assay buffer HBS EP+supplemented with 500 mM NaCl. Fcγ receptors were captured via anti-penta his-tag IgGs (“His capture kit”, Order No. 2895056, Cytiva) covalently amine coupled to a Series S CM5 sensor chip (Cytiva). The amine coupling was carried out according to the manufacturer's instructions using 1-ethyl-3-(3-dimethylaminopropyl) carbodiimide hydrochloride (EDC), N-hydroxysuccinimide (NHS) and ethanolamine HCl, pH 8.5 (“Amine Coupling Kit” BR-1000-50, Cytiva.). Human Fcγ receptor I (R&D Systems, Order No. 1257-FC), Fcγ receptor IIa (R&D Systems, Order No. 1330-CD/F), Fcγ receptor IIb/c (R&D Systems, Order No. 1875-CD), Fcγ receptor IIIa (R&D Systems, Order No. 4325-FC) and Fcγ receptor IIIb (R&D Systems, Order No. 1597-FC) were captured to ˜30 RU.
(§2) Anti-CEACAM6 engineered antibodies were used as analytes in a concentration series from 0.04-25 μM in multi cycle kinetics mode. The sensor surface was regenerated with glycine pH 1.5 after each analyte injection. Obtained sensorgrams were double referenced (subtraction of reference flow cell signal and buffer injection) and were fitted to a 1:1 Langmuir binding model to derive steady-state affinity data using the Biacore T200 Evaluation software.
Background: SPR reads the build-up and loss of mass on a sensor chip optically.

Test [2] concerns the target T2, Human Fcγ receptor IIIa (human, UniProt P08637 17-208, limits assumed).
T2 construct: Bought protein; also called Fcγ RIIIa
Put plainly: SPR (Biacore T200), His-tagged FcγR captured via anti-His IgG, antibody as analyte 0.04-25 µM, steady-state affinity; clear binding response. On the procedure: as §1, §2

For test [3], the target named is T3, Human Fcγ receptor IIa (human, UniProt P12318 36-218, limits assumed).
T3 construct: Bought protein; also called Fcγ RIIa
T3 sequence (looked up): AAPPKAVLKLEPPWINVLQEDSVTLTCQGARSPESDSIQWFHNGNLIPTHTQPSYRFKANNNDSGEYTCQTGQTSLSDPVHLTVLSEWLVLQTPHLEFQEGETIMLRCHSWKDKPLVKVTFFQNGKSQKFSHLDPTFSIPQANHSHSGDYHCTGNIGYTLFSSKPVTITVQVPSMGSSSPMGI
As to the kind of experiment: SPR (Biacore T200), His-tagged FcγR captured via anti-His IgG, antibody as analyte, steady-state. On the procedure: as §1, §2

In test [4] the target is T4, Human Fcγ receptor IIb/c (human, UniProt P31994 46-217).
T4 construct: Bought protein; also called Fcγ RIIb/c
T4 sequence (looked up): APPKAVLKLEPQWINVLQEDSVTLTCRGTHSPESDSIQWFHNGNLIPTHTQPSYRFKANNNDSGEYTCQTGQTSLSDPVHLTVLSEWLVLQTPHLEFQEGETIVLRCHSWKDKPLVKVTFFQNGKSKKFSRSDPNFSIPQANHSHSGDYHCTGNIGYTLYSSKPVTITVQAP
The test is described as above. As to the method:
as §1, §2

The target of test [5] is T5, Human Fcγ receptor IIIb (human, UniProt O75015 20-208, limits assumed).
T5 construct: Bought protein; also called Fcγ RIIIb
Described as above. As to the method: as §1, §2

In test [6] the target is T6, human CEACAM6 (carcinoembryonic antigen-related cell adhesion molecule 6) (human, UniProt P40199 35-320).
T6 sequence: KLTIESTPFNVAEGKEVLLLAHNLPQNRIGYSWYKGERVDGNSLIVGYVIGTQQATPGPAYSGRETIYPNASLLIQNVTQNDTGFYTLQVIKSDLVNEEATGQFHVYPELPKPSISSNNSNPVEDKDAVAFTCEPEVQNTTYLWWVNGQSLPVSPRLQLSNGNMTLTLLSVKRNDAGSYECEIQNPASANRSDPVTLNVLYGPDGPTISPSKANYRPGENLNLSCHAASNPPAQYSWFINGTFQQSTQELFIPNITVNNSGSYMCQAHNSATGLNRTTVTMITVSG
As to the kind of experiment: cell-based or functional assay.

For test [7], the target named is T1, Human Fcγ receptor I. As to the kind of experiment: SPR (Biacore T200), His-tagged FcγR captured via anti-His IgG, antibody as analyte, steady-state. On the procedure: as §1, §2
Test [8] deals with T3, Human Fcγ receptor IIa. As to the kind of experiment: SPR (Biacore T200), His-tagged FcγR captured via anti-His IgG, antibody as analyte 0.04-25 µM, steady-state affinity. As to the method: as §1, §2
Test [9] addresses T2, Human Fcγ receptor IIIa. The test is described as above. On the procedure: as §1, §2
The target in test [10] is T1, Human Fcγ receptor I. Put plainly: SPR (Biacore T200), His-tagged FcγR captured via anti-His IgG, antibody as analyte 0.04-25 µM, steady-state affinity; Table 3 experiment (engineered Fc variants), steady-state affinity. As to the method: as §1, §2
Test [11] has as its target T4, Human Fcγ receptor IIb/c. As to the kind of experiment: SPR (Biacore T200), His-tagged FcγR captured via anti-His IgG, antibody as analyte 0.04-25 µM, steady-state affinity; clear binding response. On the procedure:
as §1, §2

Test [12] deals with T5, Human Fcγ receptor IIIb. The test is described as above. As to the method:
as §1, §2

The target of test [13] is T3, Human Fcγ receptor IIa. As to the kind of experiment: SPR (Biacore T200), His-tagged FcγR captured via anti-His IgG, antibody as analyte, steady-state affinity. On the procedure: as §1, §2
Test [14] concerns the target T4, Human Fcγ receptor IIb/c. Described as above. On the procedure:
as §1, §2

For test [15], the target named is T2, Human Fcγ receptor IIIa. The description is as above. As to the method:
as §1, §2

The target in test [16] is T5, Human Fcγ receptor IIIb. The test is described as above. On the procedure: as §1, §2
Test [17] has as its target T1, Human Fcγ receptor I. The description is as above. On the procedure:
as §1, §2

Test [18] has as its target T2, Human Fcγ receptor IIIa. As to the kind of experiment: SPR (Biacore T200), His-tagged FcγR captured via anti-His IgG, antibody as analyte, steady-state. As to the method:
as §1, §2

T2 sequence (P08637 17-208 limits assumed): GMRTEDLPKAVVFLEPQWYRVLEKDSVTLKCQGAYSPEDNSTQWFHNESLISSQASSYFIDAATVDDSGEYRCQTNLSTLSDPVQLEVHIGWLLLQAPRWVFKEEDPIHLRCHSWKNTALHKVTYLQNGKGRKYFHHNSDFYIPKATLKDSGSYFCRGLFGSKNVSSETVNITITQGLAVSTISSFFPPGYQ
T5 sequence (O75015 20-208 limits assumed): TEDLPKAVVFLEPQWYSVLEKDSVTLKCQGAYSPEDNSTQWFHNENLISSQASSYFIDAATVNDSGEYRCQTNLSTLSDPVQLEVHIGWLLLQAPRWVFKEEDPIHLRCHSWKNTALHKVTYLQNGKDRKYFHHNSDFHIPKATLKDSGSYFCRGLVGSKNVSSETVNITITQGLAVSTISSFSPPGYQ
T1 sequence (P12314 16-288 limits assumed): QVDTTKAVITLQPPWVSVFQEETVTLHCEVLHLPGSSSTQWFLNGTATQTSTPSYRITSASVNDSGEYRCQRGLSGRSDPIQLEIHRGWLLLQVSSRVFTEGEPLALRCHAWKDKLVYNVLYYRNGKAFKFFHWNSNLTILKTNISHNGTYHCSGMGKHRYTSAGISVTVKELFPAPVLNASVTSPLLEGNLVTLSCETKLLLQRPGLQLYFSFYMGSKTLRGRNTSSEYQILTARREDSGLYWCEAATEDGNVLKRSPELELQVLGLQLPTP

B1: CEACAM6-Human IgG1-LALA (TPP-19919) (antibody)
heavy: not shown
light: DIQLTQSPSFLSASVGDRVTITCKASQNVGTAVAWYQQKPGKAPKLLIYSASNRYTGVPSRFSGSGSGTEFTLTISSLQPEDFATYYCQQYSSYPLTFGGGTKVEIKRTVAAPSVFIFPPSDEQLKSGTASVVCLLNNFYPREAKVQWKVDNALQSGNSQESVTEQDSKDSTYSLSSTLTLSKADYEKHKVYACEVTHQGLSSPVTKSFNRGEC
notes: Human IgG1 with L234A/L235A (EU numbering)
Take B1: the Kd (in general, the equilibrium constant for the complex coming apart) is 3.7 µM with Human Fcγ receptor I [1] and above 25 µM with Human Fcγ receptor IIIa [2]. Further, the binding result in the test with Human Fcγ receptor IIa [3], in the test with Human Fcγ receptor IIb/c [4] and with Human Fcγ receptor IIIb [5] was “no binding (tested: 0.04-25 µM)” throughout.

B2: CEACAM6-Human IgG2 (TPP-3310) (antibody)
heavy: QVTLRESGPALVKPTQTLTLTCTFSGFSLSTYGIGVGWIRQPPGKALEWLAHIWWNDNKYYSTSLKTRLTISKDTSKNQVVLTMTNMDPVDTATYYCARISLPYFDYWGQGTTLTVSSASTKGPSVFPLAPCSRSTSESTAALGCLVKDYFPEPVTVSWNSGALTSGVHTFPAVLQSSGLYSLSSVVTVPSSNFGTQTYTCNVDHKPSNTKVDKTVERKCCVECPPCPAPPVAGPSVFLFPPKPKDTLMISRTPEVTCVVVDVSHEDPEVQFNWYVDGVEVHNAKTKPREEQFNSTFRVVSVLTVVHQDWLNGKEYKCKVSNKGLPAPIEKTISKTKGQPREPQVYTLPPSREEMTKNQVSLTCLVKGFYPSDIAVEWESNGQPENNYKTTPPMLDSDGSFFLYSKLTVDKSRWQQGNVFSCSVMHEALHNHYTQKSLSLSPG
light: B1 light
notes: Human IgG2; expressed in HEK293 cells
As to B2, in test [6], the “TILs IFNgamma production (co-culture with HCC2935 tumor cells), EC50” value is 0.7 µg/mL; the “TILs mediated HCC2935 killing (xCELLigence impedance assay), EC50” value came out at 0.4 µg/mL; the “survivin specific T cells IFNgamma production (co-culture with HCC2935 tumor cells), EC50” value was determined as 0.5 µg/mL. Moreover, the binding result with Human Fcγ receptor IIa [3] was “no binding (tested: Highest concentration used was 16 µM)”. For the same molecule, in the test with Human Fcγ receptor IIIb [5], the binding result is “no binding (tested: Highest concentration used was 16 µM)”. The binding result in the test with Human Fcγ receptor I [7] is on record as “no binding (tested: Highest concentration used was 16 µM)”.

B3: CEACAM6-Human IgG1 (TPP-5468) (antibody)
heavy: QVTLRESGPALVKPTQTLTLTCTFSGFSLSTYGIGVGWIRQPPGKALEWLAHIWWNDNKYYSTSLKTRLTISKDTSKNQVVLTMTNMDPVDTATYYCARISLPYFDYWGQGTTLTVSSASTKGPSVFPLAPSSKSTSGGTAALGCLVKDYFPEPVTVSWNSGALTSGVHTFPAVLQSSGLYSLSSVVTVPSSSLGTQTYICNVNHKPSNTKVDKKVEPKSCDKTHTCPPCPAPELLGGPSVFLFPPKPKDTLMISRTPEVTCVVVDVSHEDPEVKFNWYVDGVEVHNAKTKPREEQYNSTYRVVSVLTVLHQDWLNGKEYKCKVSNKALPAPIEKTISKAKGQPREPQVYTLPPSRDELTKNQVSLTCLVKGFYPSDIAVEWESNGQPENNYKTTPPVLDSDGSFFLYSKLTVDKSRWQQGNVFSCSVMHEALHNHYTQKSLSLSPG
light: B1 light
notes: expressed in HEK293 cells; also called hIgG1; anti-CEACAM6 human IgG1 format
Consider B3, for which the Kd is 21 µM with Human Fcγ receptor IIa [8]; 4.9 µM with Human Fcγ receptor IIIa [9]; 0.016 µM with Human Fcγ receptor I [10]; above 25 µM with Human Fcγ receptor IIb/c [11]; above 25 µM with Human Fcγ receptor IIIb [12]; 7.3 µM in the test with Human Fcγ receptor IIa [13]. Besides, the Kd with Human Fcγ receptor IIb/c [14] came to 11 µM; with Human Fcγ receptor IIIa [15], 1 µM; in the test with Human Fcγ receptor IIIb [16] it was 7.4 µM; with Human Fcγ receptor I [17] it was 0.32 µM.

B4: CEACAM6-Human IgG1-aglyco (TPP-10914) (antibody)
heavy: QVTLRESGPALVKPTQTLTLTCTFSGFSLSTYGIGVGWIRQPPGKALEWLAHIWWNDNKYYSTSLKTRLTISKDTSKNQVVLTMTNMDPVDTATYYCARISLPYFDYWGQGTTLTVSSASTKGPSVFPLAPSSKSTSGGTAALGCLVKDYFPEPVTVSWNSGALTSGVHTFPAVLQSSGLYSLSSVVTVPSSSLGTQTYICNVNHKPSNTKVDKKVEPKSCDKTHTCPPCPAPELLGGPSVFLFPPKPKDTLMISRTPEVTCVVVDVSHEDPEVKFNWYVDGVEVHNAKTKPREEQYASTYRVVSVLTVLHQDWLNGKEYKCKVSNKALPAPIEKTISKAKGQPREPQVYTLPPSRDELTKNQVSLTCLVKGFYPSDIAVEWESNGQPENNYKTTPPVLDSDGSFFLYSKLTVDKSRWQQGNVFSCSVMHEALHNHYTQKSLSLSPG
light: B1 light
notes: Human IgG1 with N297A (EU numbering), aglycosylated
Molecule B4 registered a Kd with Human Fcγ receptor I [1] of 1.2 µM. The binding result with Human Fcγ receptor IIa [3], with Human Fcγ receptor IIb/c [4], with Human Fcγ receptor IIIa [18] and in the test with Human Fcγ receptor IIIb [5] was “no binding (tested: 0.04-25 µM)” throughout.

B5: CEACAM6-Human IgG1-LALAaglyco (TPP-21518) (antibody)
heavy: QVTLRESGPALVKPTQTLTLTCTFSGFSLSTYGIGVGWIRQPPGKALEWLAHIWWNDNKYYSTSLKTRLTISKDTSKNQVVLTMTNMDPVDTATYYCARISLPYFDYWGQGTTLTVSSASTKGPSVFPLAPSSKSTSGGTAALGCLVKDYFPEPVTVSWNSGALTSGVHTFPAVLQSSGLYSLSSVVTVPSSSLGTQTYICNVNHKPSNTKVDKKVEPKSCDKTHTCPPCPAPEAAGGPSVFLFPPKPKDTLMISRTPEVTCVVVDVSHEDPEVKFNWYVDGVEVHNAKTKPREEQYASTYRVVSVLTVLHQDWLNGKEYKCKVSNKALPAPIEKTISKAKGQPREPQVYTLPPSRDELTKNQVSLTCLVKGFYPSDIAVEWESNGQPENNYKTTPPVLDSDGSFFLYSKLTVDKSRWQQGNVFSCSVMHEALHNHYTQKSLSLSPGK
light: B1 light
notes: Human IgG1 with L234A/L235A/N297A (EU numbering); also called IgG1 LALAaglyco anti-CEACAM6 antibody
Consider B5, for which the “TILs IFNgamma production (co-culture with HCC2935 tumor cells), EC50” value in test [6] was 0.5 µg/mL. In addition, the “TILs mediated HCC2935 killing (xCELLigence impedance assay, 100 h), EC50” value in test [6] stood at 0.43 µg/mL. For the same molecule, the “survivin specific T cells IFNgamma production (co-culture with HCC2935 tumor cells), EC50” value in test [6] came to 0.55 µg/mL. For the same molecule, the binding result with Human Fcγ receptor IIa [3], in the test with Human Fcγ receptor IIb/c [4], in the test with Human Fcγ receptor IIIa [18], with Human Fcγ receptor IIIb [5] and with Human Fcγ receptor I [7] was “no binding (tested: 0.04-25 µM)” each time.
